Laboratory results: PMC7398576

Columns and labels:
p53 wild type = p53 wild type (UniProt P04637 1-393); experiment: pull-down
FLAG-p53 = FLAG-p53 (UniProt P04637 1-393); experiment: pull-down
Chain of FLAG-p53 (P04637 whole entry): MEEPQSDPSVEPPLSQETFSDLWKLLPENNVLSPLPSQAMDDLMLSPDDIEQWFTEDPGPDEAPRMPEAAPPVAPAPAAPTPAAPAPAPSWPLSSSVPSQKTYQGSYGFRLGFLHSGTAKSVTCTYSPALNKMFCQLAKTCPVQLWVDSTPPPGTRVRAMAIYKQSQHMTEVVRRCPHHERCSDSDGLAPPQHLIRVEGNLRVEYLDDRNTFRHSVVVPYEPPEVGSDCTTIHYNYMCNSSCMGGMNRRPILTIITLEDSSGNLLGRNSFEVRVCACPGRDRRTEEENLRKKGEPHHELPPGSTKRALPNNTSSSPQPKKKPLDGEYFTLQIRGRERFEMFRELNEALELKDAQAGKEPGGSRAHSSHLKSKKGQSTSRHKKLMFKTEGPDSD

Chain of p53 wild type (P04637 whole entry): as above

B1: biotinylated p53-site oligonucleotide (dsDNA)
DNA 1: TCGAGAGGCATGTCTAGGCATGTCTC
DNA 2: GAGACATGCCTAGACATGCCTCTCGA
binding result (p53 wild type): binds | binding result (FLAG-p53): binds
